In CN116355088A:

Legend:
生物素标记的抗原多肽 (human) = 生物素标记的抗原多肽 (human) (UniProt P29400); experiment: BLI (Fortebio Octet), biotinylated peptide on SA biosensor, antibody at 100 to 1.56 nM
人IV型胶原蛋白α5链多肽 (human) = 人IV型胶原蛋白α5链多肽 (human) (UniProt P29400); experiment: indirect ELISA, plate coated with 0.5 μg/ml peptide, purified antibody in 3-fold dilutions from 1 μg/ml

B1: 18G6-2 (antibody, V domains shown)
VH: QVQLQQPGAELVKPGASVKVSCKASGYTFTNYWMHWVKQRPGQGLEWIGRIHPSDSAINYSPKFTGKATLTVDKSSSTAYMQLTSLTSEDSAVYYCAIGGYDSYWGQGTLVTVSA
VL: DIQMTQTTSSLSASLGDRVTISCRASQDISNYLNWYQQKPDGTVKLLIYYTSTLHSGVPSRFSGSGSGTDYSLTINSLAQEDIATYFCQQVNTLPWTFGGGTKLAIK
Kd (生物素标记的抗原多肽 (human)): 3.18 nM
EC50 (人IV型胶原蛋白α5链多肽 (human)): 0.0221 µg/mL
